Laboratory results published in article PMC12846656.
pKd: −log10 of the molar value.

Assays:
[1] = system: HIV-1 Gag WT (HIV-1); test: fluorescence anisotropy salt titration
[2] = system: WT Np (SARS-CoV-2 (ancestral, WA-1/2020 isolate)); test: fluorescence anisotropy salt titration

Row | Substance | pKd [1] | pKd [2]
1 | SL1-5 | 1.68 | 4.44
2 | SL1-4 | 0.92 | 3.59
3 | HIV-1 TARpolyA |  | 3.59
4 | HIV-1 WT Psi |  | 4.42
5 | SL5 | 3.85 | 3.30
